In the nanobody polyreactivity screen of Harvey et al. (2022):

Experiment: yeast display, Sf9 membrane polyspecificity reagent, FACS + sequencing; frameworks hold sequencing errors
Outline: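 Sorting gates, low and high (top ~1%), were placed on anti-HA fluorescence to track expression and on streptavidin fluorescence to track reagent binding. A clone's polyreactivity label is taken from the gate it came out of. The reagent was 10% biotinylated, detergent-solubilized Sf9 membrane, applied for 1 hour at 4 °C to galactose-induced yeast display cells.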

Sequence: QVQLVESGGGLVQAGGSLRLSCAASGRIFYSYAMGWYRQAPGKERELVAAITRGGSTSYADSVKGRFTISRDNAKNTVYLQMNSLKPEDTAVYYCATRQFYSYWKYYYWGQGTQVTVSS
- polyreactivity (PSR sort gate): high polyreactivity

Sequence: QVQLVESGRGLVQAGGSLPLSSASSGLTFKTYAMGRYRQAPGKVSELVAAITSGGTSTYYADSVKGRFTISRDNAKNTVYFQMNSLKPEDTAVYYCAARYYFSYSVGYYYWGQGTQVTVSS
- polyreactivity (PSR sort gate): high polyreactivity

Sequence: QVQLVESGGGLVQAGGSLRLSCAASGRTFALYAMGWYRQAPGKERELVAAITSGGSTNYADSVKGRFTISRDNAKNTVYVQMNSLKPEDTAVYYCNADDSSKDVIGLDYWGQGTQVTVSS
- polyreactivity (PSR sort gate): low polyreactivity

Sequence: QVQLVESGGGLVQAGGSLRLSCAASGSIFYSYAMGWYRQAPGKERELVAAISFSGGSTYYADSVKGRFTISRDNAKNTVYLHMNSLKPEDPAVYYCNTLSADTFDYWGQGTQVTVSS
- polyreactivity (PSR sort gate): low polyreactivity

Sequence: QVQLVESGGCLVQAGGSRRLSCDASVRIVPVYAMGWYRQAHGNERELVAAISQSGGSTYADSVKGRFTISRDNAKNTVYLQMNSLKPEDTAVYYCAARYWKWRPAYEYWGPGTQVTVSS
- polyreactivity (PSR sort gate): high polyreactivity

Sequence: KSGGGLVQAGGSLRLSCAASGRIFLEYAMAWYKQAPGKERELFASISWSGDSTYYADSVKGRFTISRDNAKNTVYLQKNSLKPEDTAVYYCNADGQVGNAVSYDYWGQGTQVTVSS
- polyreactivity (PSR sort gate): low polyreactivity

Sequence: QVQLVESGGGLVQAGGSLRLSCAASGIIFRVNAMGWYRQAPGKERELVAAISSGGRTYYADSVKGRFTISRDNAKNTVYLQMNSLKPEDTAVYYCAAKPPSTYDYWGQGTQVTVSS
- polyreactivity (PSR sort gate): high polyreactivity

Sequence: QVQLVESGGGLVQAGGSLRLSCAASGFIFSTYVMGWYRQAPGKERELVAAISASGGRTYYADSVKGRFTISRDTAKNTVYLQMNSLKPEDTAVFYCAAEITDTYRWALNYWGQGTQVTVSS
- polyreactivity (PSR sort gate): high polyreactivity

Sequence: QVQLVESGGGLVQAGGSLRLSCAASGLTFYGNAMGWYRQAPGKERELVAAISSSGGTTYYADSVKGRFTISRDNEKNTVYLQMNSLKPEDTAVYYCNTRNTYFYAGYDYWGQGTQVTVSS
- polyreactivity (PSR sort gate): low polyreactivity

Sequence: QVQLVESGGGLVQAGGSLRLSCAASGRIFNGYAMGWYRQAPGKERELVAAISKSGTRTYYADSVKGRFTISRDNAKNTVYLQMTSLKPEDTAVYYCNARVYRYDTYNEYYYWGQGTQVTVSS
- polyreactivity (PSR sort gate): high polyreactivity

Sequence: QVQLVESGGGLVQAGGSLRLTSAASGRTFFRYAMRWYRQAPGKERELVAAISRGGGRTYYADSVKGRFTISRDNAKNTVYLQMNSLKPEDTAVYYCNKTERSGSNYLGQGTQVTVSS
- polyreactivity (PSR sort gate): high polyreactivity

Sequence: QVQLVESGGGLVQAGGSLRLSCAASGSNIGTYAMGWYRQAPGKERELVAAISSSGGRTYYADSVKGRFTISRDNAKNTVYLQMNSLKPEDTAVYYCATKRVLTGYDSWGQGTQVTVSS
- polyreactivity (PSR sort gate): high polyreactivity

Sequence: QVQLVESGGGLVQAGGSLRLSCAASGFTFIGYAMGWYRQAPGKERELVAAITQSGGSTFYADSVKGRFTISRDNAKNTVYLQMNSLKPEDTAVYYCNAYRKFRYWGQGTQVTVSS
- polyreactivity (PSR sort gate): low polyreactivity

Sequence: QGQLVESGGGLVQAGGSLRLSCAASGRIFPAYGMAWYRQAPGQERELVATIDNGGGTYYADSVKGRFTISRDNAKNTVYLQMNSLKPEDTAVYYCARDRHVRWGLKMDFWGQGTQVTVSS
- polyreactivity (PSR sort gate): low polyreactivity

Sequence: QVQLVESGGGLVQAGGSLRLSCAASGFTFGQYAMGWYRQAPGKERELVAAITGSGGRTYYADSVKGRFTISRDNAKNTVYLQMNSLKPEDTAVYYCNARVPLRHYSNYYWGQGTQVTVSS
- polyreactivity (PSR sort gate): high polyreactivity

Sequence: QVQLVESGGGLVQAGGSLRLSGDASGSIFVWYDMGWYRQAPGKERELVATISLSGVSTYYADSVKGRFTISRDNAKKTVYLQMNSLKPEDNAVYYCAADFVEQGEDDYCGQGTQVTVSS
- polyreactivity (PSR sort gate): low polyreactivity

Sequence: QVHLVESGGGLVQAGGRLRLSCAASGFTYYRYTMGWYRQAPGKERELVAAISWNGGRTYYADSVKGRFTISRDNAKNTVYLQMNSLKPEDTAVYYCAAVQHYTNRYPAVDYWGQGTQVTVSS
- polyreactivity (PSR sort gate): high polyreactivity

Sequence: QVQLVESGGGLVQAGGSLRLSCAASGRIYTHYAMGWYRQAPGKERELVAAISYRGGSTYYADSVKGRFTISRDNAKNTVYLQMNRLKPEATAVYYCNKYRFVYSLDDYWGQGIQVTVSS
- polyreactivity (PSR sort gate): high polyreactivity

Sequence: QVQLVESGGSLVQAGGSLRLSCAASGRIFHNNAMGWYRQAPGKERELVAAISTGGSTNYADSVKGRFTISRDNAKNTVYLQMNSLTPEDTAVYYCAAEHPVTYPTSKFDYWGQGTQVTVSS
- polyreactivity (PSR sort gate): low polyreactivity

Sequence: QVQLVESAGGLVQAGGSLRLSCAASGLIFEYNAMGWYRQAPGKERELVAAITTNGGSTYYADSVKGRFTISRDNAKNTVYLQINSLKPEDTAVYYCAALGLHQVIEYDYWGQGTQVTVSS
- polyreactivity (PSR sort gate): low polyreactivity

Sequence: QVQLVESAGGLVQAGGSLRLSCAASGSTFYTYAMGWYRQAPGKERELVAAISWSGGSTYYADSVKGRFTISRDNAKNSVYLQMNSLKPEDTAVYYCAARRVKYISLDYWGQGTQVTVSS
- polyreactivity (PSR sort gate): low polyreactivity

Sequence: QVQLVESGGGLVQAGGSLRLSCAASGFIFRTYAMGWYRQAPGKERDLVAAISWRGGSTYYADSVKGRFTISRDNAKNTVYLQMNSLKPEDTAVYYCAKDTTRGVYRSWPKDMDYWGQGTQVTVSS
- polyreactivity (PSR sort gate): low polyreactivity

Sequence: QVQLVESGGGLVQAGGSLRLSCSASGRTFSWYAMGWYRKAPGKERELVAAISYSGGSTYYADSVKGRFTISRDNAKNTVYLQMNSLKPEDTAVYYCARTRRHSQNFDYWGQGTQVIVSS
- polyreactivity (PSR sort gate): high polyreactivity

Sequence: QVQLVESGGGLVQAGGSLRLSCAASGRSFIENVKGWYRQAPGKERELVAAIRSAGTTYNADSVKGRFTISRDNAKNTVYLQMNSLKPEDTAVDYCAATNRYYWSYFYQSKYGYWGQGTQVTVSS
- polyreactivity (PSR sort gate): low polyreactivity

Sequence: QVQLVESGAGLVQAGVSLRLSCAASGSIFADYAMGWYRQAPGKERELVAVISRRGGTTYYADSVKGRFTISRDNAKNTVYLPMNSLKPEDTAVYYCAARRSFNEYDYWGQGTQVTVSS
- polyreactivity (PSR sort gate): high polyreactivity

Sequence: QVQLVESGGGLVQAGGSLRLSCAASGRIFGVYGMGWYRQAPGKERELVAAITISGRTNYADSVKGRFTISRDNAKNTVYLQMNSLKREDTAVYYCAAGGQARHDYWGQGTQVTVSS
- polyreactivity (PSR sort gate): low polyreactivity

Sequence: QVQLVESGGGLVQAGGSHRLSCAASGSIFNRYAMGWYRQAPGKERELVAAITAGGSSTYYADSVKGRFTISRDNAKNTVYLQMNSLKPEDTAVYYCNAVWWHPKDYDYWGQGTQVTVSS
- polyreactivity (PSR sort gate): low polyreactivity

Sequence: QVQLVESGGGLVQAGGSLRLSCAASGNTFKVYVMGWYRQAPGKERELVAAISRRGGNTYYADSVKGRFTISRDNAKNTVYLQMNSLKPEDTAVYYCAAYRAPYYEYDYWGQGTQVTVSS
- polyreactivity (PSR sort gate): high polyreactivity

Sequence: QVQLVESGGGLVQAGGSLRLSCAASGSTFWYYAMAWYRHAPGKEREMVAAINSDDSTNYADSVKGRFTISRDNAKNTDYLQMNSLKPEDTAVYDCHRGFVYSTTGLWRYYDFDYWGQGTQVTLSS
- polyreactivity (PSR sort gate): low polyreactivity

Sequence: QVQLVESGGGLVQAGRSLRLTCAASGRTFLANAMGWYRQAPGKEREFVAAIDWRTGSTYYADSVKGRFTISRDNAKNSVYLQRNSLNPEDTAVYYCAKDSSSYYYAHFYYWGQGTQVTVSS
- polyreactivity (PSR sort gate): high polyreactivity

Sequence: QVQLVESGGGLGQAGGSLRLSTAASGSNFRYNTMGWYRLGPGKERELVAAINISSSSTYYADSLKGRFTISRDNAKNTVYLQMNSLKPEVTAVYYCANRDYVPIATYENDDYWGQGTQVNVSS
- polyreactivity (PSR sort gate): low polyreactivity

Sequence: QVQLVESGGGLVQAGGSLRLSCAASGSTFYWYAMGWYRQATGKERELVAVITVRGGSTYYADSVKGRFTISRDNAKYTVYLQMNSLKPEDTAVYYCAAEQTSSLYKYWYDYWGQGTQVTVSS
- polyreactivity (PSR sort gate): low polyreactivity
